B1: HSP90AB1 (parent)
chain: TLRQKAEADKNDKAVKDLVVLLFE

Variants of: B1
Test: protein stability index of a GFP-peptide fusion (GPS, HEK-293T) (PSI 1-6); higher = more stable
Conditions: c terminus: a fixed tail appended
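Further: lentivirally expressed fusions sorted by FACS into six bins by GFP to DsRed ratio, PSI derived from sequencing read proportions per bin multiplied by bin number.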

Row | Variant | protein stability index
1 | V20E | 5.2
2 | V20N | 4.46
3 | V20P | 4.05
4 | V20Q | 4.1
5 | V20T | 3.48
6 | V20W | 2.58
7 | V20C | 3.53
8 | V20D | 5.3
9 | V20L | 3.13
10 | V20F | 2.96
11 | V20G | 3.64
12 | V20A | 4.47
13 | V20Y | 2.7
14 | V20R | 2.88
15 | V20S | 4.6
16 | V20H | 3.43
17 | V20M | 3.77
18 | K16P | 2.65
19 | K16I | 2.24
20 | K16A | 2.87
21 | K16T | 2.99
22 | K16W | 3.02
23 | K16S | 2.92
24 | K16V | 3.65

Row | Variant | protein stability index
25 | K16C | 2.19
26 | K16Y | 2.24
27 | K16H | 3.29
28 | K16D | 3.36
29 | K16Q | 3.75
30 | K16N | 3.44
31 | K16E | 3.06
32 | K16M | 2.86
33 | K16F | 3.28
34 | L21T | 3.5
35 | L21P | 4.61
36 | L21F | 2.35
37 | L21Y | 2.41
38 | L21V | 3.06
39 | L21N | 3.89
40 | L21W | 1.73
41 | L21I | 2.35
42 | L21D | 4.26
43 | L21E | 3.98
44 | L21K | 2.91
45 | L21Q | 3.52
46 | L21S | 3.44
47 | L21R | 3.31
48 | L21G | 3.63

Row | Variant | protein stability index
49 | L21A | 2.67
50 | D17Y | 1.91
51 | D17L | 1.49
52 | D17Q | 2.04
53 | D17K | 2.14
54 | D17T | 1.95
55 | D17W | 2.62
56 | D17F | 1.51
57 | D17N | 2.69
58 | D17P | 2.87
59 | D17S | 2.58
60 | D17C | 1.83
61 | D17A | 1.99
62 | D17G | 2.26
63 | D17I | 2.35
64 | D17H | 2.52
65 | D17V | 1.6
66 | D17R | 1.98
67 | D17E | 2.96
68 | L22N | 4.2
69 | L22M | 3.15
70 | L22G | 4.5
71 | L22F | 2.84
72 | L22Y | 2.78

Row | Variant | protein stability index
73 | L22S | 4.34
74 | L22T | 3.96
75 | L22Q | 4.84
76 | L22K | 4.47
77 | L22V | 3.73
78 | L22C | 3.82
79 | L22R | 3.9
80 | L22H | 3.79
81 | L22E | 4.86
82 | L22D | 4.86
83 | L22P | 4.97
84 | L18W | 3.19
85 | L18M | 3.29
86 | L18K | 3.44
87 | L18N | 4.19
88 | L18V | 2.24
89 | L18I | 2.95
90 | L18S | 3.9
91 | L18P | 4.21
92 | L18F | 2.24
93 | L18R | 3.19
94 | L18Q | 4.03
95 | L18Y | 2.87
96 | L18G | 3.69

Row | Variant | protein stability index
97 | L18H | 3.3
98 | L18D | 4.2
99 | L18C | 2.85
100 | L18E | 4.04
101 | K13D | 2.63
102 | K13C | 2.84
103 | K13F | 1.93
104 | K13A | 3.19
105 | K13S | 2.99
106 | K13V | 2.91
107 | K13I | 2.47
108 | K13Q | 3.21
109 | K13T | 2.96
110 | K13H | 2.46
111 | K13E | 3.39
112 | K13G | 2.77
113 | K13P | 3.22
114 | K13M | 2.75
115 | K13W | 1.73
116 | K13Y | 2.2
117 | K13N | 2.85
118 | E24I | 2.54
119 | E24T | 2.14
120 | E24F | 1.83

Row | Variant | protein stability index
121 | E24S | 2.19
122 | E24A | 1.89
123 | E24L | 2.54
124 | E24D | 2.83
125 | E24P | 1.71
126 | E24N | 2.44
127 | E24Y | 2.21
128 | E24V | 2.01
129 | E24M | 1.83
130 | E24K | 2.06
131 | E24H | 2.79
132 | E24R | 2.04
133 | E24C | 1.43
134 | E24Q | 2.64
135 | E24W | 1.97
136 | E24G | 2.26
137 | V19W | 2.7
138 | V19R | 4.18
139 | V19F | 2.96
140 | V19H | 4.22
141 | V19P | 4.38
142 | V19E | 5.04
143 | V19Q | 4.23
144 | V19G | 4.16

Row | Variant | protein stability index
145 | V19I | 3.5
146 | V19L | 2.68
147 | V19D | 4.61
148 | V19S | 4.08
149 | V19Y | 3.1
150 | V19A | 3.72
151 | V19N | 3.91
152 | V19T | 4.13
153 | V19M | 2.44
154 | V19C | 3.16
155 | V19K | 4.26
156 | F23I | 2.88
157 | F23R | 3.79
158 | F23C | 3.71
159 | F23Q | 4.55
160 | F23M | 3.37
161 | F23W | 2.56
162 | F23N | 4.73
163 | F23K | 4.69
164 | F23T | 4.76
165 | F23L | 3.27
166 | F23S | 3.95
167 | F23A | 3.7

From the supplement of paper PMC10567573
